PMC2120044 (The Journal of Cell Biology, 1994)

Molecular target: the molecule itself
Assay: SEC

B1: cofactor A purified from bovine testis (natural protein, UniProt P48427 1-108, looked up)
chain: MADPRVRQIKIKTGVVKRLVKEKMMYEKEAKQQEEKIEKMKAEDGENYAIKKQAEILQESRMMIPDCQRRLEAAHTDLLQLLESEKDLEEAEEYKEARLVLDSVKLEA
stoichiometry N: 2
